Data from patent publication US20250320252A1, “LONG-ACTING DUAL GIP/GLP-1 PEPTIDE CONJUGATES AND METHODS OF USE” (The Scripps Research Institute, priority 2021, published 2025).

What was measured:
[1] = molecular target: cynomolgus monkey GLP1R (cynomolgus monkey) (UniProt F8V479); experiment: cell-based or functional assay
[2] = molecular target: cynomolgus monkey GIPR (cynomolgus monkey); experiment: cell-based or functional assay

In Vitro Potency GLP1R EC50 [nM], Cyno [1] | In Vitro Potency GIPR EC50 [nM], Cyno [2] | Substance
0.13 nM | – | Semaglutide (peptide)
– | 0.08 nM | Tirzepatide (peptide)
